# B1: TRIM39 (parent)
# chain: ERDFPCPVCRKTSRYRSLRPNRQL
# Variants of: B1
# Assay: protein stability index of a GFP-peptide fusion (GPS, HEK-293T) (PSI 1-6); higher = more stable
# Conditions: c terminus: a fixed tail appended
# 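Also: lentivirally expressed fusions sorted by FACS into six bins by GFP to DsRed ratio, PSI derived from sequencing read proportions per bin multiplied by bin number.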
row,Variant,protein stability index
1,ERDFPCPPCRKTSRYRSLRPNRQL,3.91
2,ERDFPCPECRKTSRYRSLRPNRQL,1.72
3,ERDFPCPICRKTSRYRSLRPNRQL,2.38
4,ERDFPCPNCRKTSRYRSLRPNRQL,2.43
5,ERDFPCPRCRKTSRYRSLRPNRQL,3.23
6,ERDFPCPLCRKTSRYRSLRPNRQL,1.96
7,ERDFPCPQCRKTSRYRSLRPNRQL,2.35
8,ERDFPCPDCRKTSRYRSLRPNRQL,2.2
9,ERDFPCPCCRKTSRYRSLRPNRQL,2.66
10,ERDFPCPACRKTSRYRSLRPNRQL,2.89
11,ERDFPCPHCRKTSRYRSLRPNRQL,2.34
12,ERDFPCPMCRKTSRYRSLRPNRQL,2.31
13,ERDFPCPKCRKTSRYRSLRPNRQL,2.68
14,ERDFPCPTCRKTSRYRSLRPNRQL,3.06
15,ERDFPCPFCRKTSRYRSLRPNRQL,1.41
16,ERDFPCPGCRKTSRYRSLRPNRQL,2.75
17,ERDFPCPYCRKTSRYRSLRPNRQL,1.95
18,ERDFPCPSCRKTSRYRSLRPNRQL,3.84
19,ERDFPCPVCHKTSRYRSLRPNRQL,2.53
20,ERDFPCPVCMKTSRYRSLRPNRQL,2.88
21,ERDFPCPVCKKTSRYRSLRPNRQL,2.14
22,ERDFPCPVCDKTSRYRSLRPNRQL,2.89
23,ERDFPCPVCFKTSRYRSLRPNRQL,1.74
24,ERDFPCPVCEKTSRYRSLRPNRQL,1.91

row,Variant,protein stability index
1,ERDFPCPVCTKTSRYRSLRPNRQL,2.16
2,ERDFPCPVCAKTSRYRSLRPNRQL,1.88
3,ERDFPCPVCIKTSRYRSLRPNRQL,2.6
4,ERDFPCPVCVKTSRYRSLRPNRQL,2.04
5,ERDFPCPVCCKTSRYRSLRPNRQL,3.16
6,ERDFPCPVCPKTSRYRSLRPNRQL,3.13
7,ERDFPCPVCLKTSRYRSLRPNRQL,2.45
8,ERDFPCPVCYKTSRYRSLRPNRQL,2.03
9,ERDFPCPVCQKTSRYRSLRPNRQL,2.08
10,ERDFPCPVCSKTSRYRSLRPNRQL,1.15
11,ERDFPCPVCNKTSRYRSLRPNRQL,2.22
12,ERDFPCPVCGKTSRYRSLRPNRQL,4.1
13,ERDFVCPVCRKTSRYRSLRPNRQL,2.29
14,ERDFYCPVCRKTSRYRSLRPNRQL,2
15,ERDFTCPVCRKTSRYRSLRPNRQL,2.93
16,ERDFWCPVCRKTSRYRSLRPNRQL,1.87
17,ERDFPMPVCRKTSRYRSLRPNRQL,3.1
18,ERDFPAPVCRKTSRYRSLRPNRQL,2.69
19,ERDFPDPVCRKTSRYRSLRPNRQL,3.74
20,ERDFPIPVCRKTSRYRSLRPNRQL,3.24
21,ERDFPVPVCRKTSRYRSLRPNRQL,3.23
22,ERDFPTPVCRKTSRYRSLRPNRQL,3.02
23,ERDFPWPVCRKTSRYRSLRPNRQL,2.01
24,ERDFPQPVCRKTSRYRSLRPNRQL,3.24

row,Variant,protein stability index
1,ERDFPLPVCRKTSRYRSLRPNRQL,3.19
2,ERDFPFPVCRKTSRYRSLRPNRQL,2.03
3,ERDFPHPVCRKTSRYRSLRPNRQL,3.61
4,ERDFPYPVCRKTSRYRSLRPNRQL,3.21
5,ERDFPGPVCRKTSRYRSLRPNRQL,3.97
6,ERDFPSPVCRKTSRYRSLRPNRQL,3.17
7,ERDFPKPVCRKTSRYRSLRPNRQL,3.13
8,ERDFPCTVCRKTSRYRSLRPNRQL,1.85
9,ERDFPCRVCRKTSRYRSLRPNRQL,2.88
10,ERDFPCMVCRKTSRYRSLRPNRQL,2.17
11,ERDFPCWVCRKTSRYRSLRPNRQL,1.96
12,ERDFPCYVCRKTSRYRSLRPNRQL,2.09
13,ERDFPCKVCRKTSRYRSLRPNRQL,2.6
14,ERDFPCLVCRKTSRYRSLRPNRQL,2.37
15,ERDFPCCVCRKTSRYRSLRPNRQL,1.94
16,ERDFPCDVCRKTSRYRSLRPNRQL,2.43
17,ERDFPCSVCRKTSRYRSLRPNRQL,2.22
18,ERDFPCHVCRKTSRYRSLRPNRQL,3.7
19,ERDFPCGVCRKTSRYRSLRPNRQL,2.38
20,ERDFPCQVCRKTSRYRSLRPNRQL,1.96
21,ERDFPCAVCRKTSRYRSLRPNRQL,2.2
22,ERDFPCNVCRKTSRYRSLRPNRQL,2.19
23,ERDFPCIVCRKTSRYRSLRPNRQL,2.75
24,ERDFPCFVCRKTSRYRSLRPNRQL,1.8

row,Variant,protein stability index
1,ERDFPCPVCRETSRYRSLRPNRQL,1.17
2,ERDFPCPVCRCTSRYRSLRPNRQL,2.55
3,ERDFPCPVCRATSRYRSLRPNRQL,2.45
4,ERDFPCPVCRFTSRYRSLRPNRQL,1.88
5,ERDFPCPVCRGTSRYRSLRPNRQL,1.75
6,ERDFPCPVCRDTSRYRSLRPNRQL,1.7
7,ERDFPCPVCRHTSRYRSLRPNRQL,3.77
8,ERDFPCPVYRKTSRYRSLRPNRQL,3.62
9,ERDFPCPVARKTSRYRSLRPNRQL,3.79
10,ERDFPCPVPRKTSRYRSLRPNRQL,2.92
11,ERDFPCPVQRKTSRYRSLRPNRQL,3.81
12,ERDFPCPVKRKTSRYRSLRPNRQL,3.42
13,ERDFPCPVGRKTSRYRSLRPNRQL,3.91
14,ERDFPCPVSRKTSRYRSLRPNRQL,3.77
15,ERDFPCPVTRKTSRYRSLRPNRQL,3.77
16,ERDFPCPVFRKTSRYRSLRPNRQL,2.45
17,ERDFPCPVVRKTSRYRSLRPNRQL,3.26
18,ERDFPCPVDRKTSRYRSLRPNRQL,4.01
19,ERDFPCPVMRKTSRYRSLRPNRQL,3.41
20,ERDFPCPVIRKTSRYRSLRPNRQL,3.29
21,ERDFPCPVHRKTSRYRSLRPNRQL,2.56
22,ERDFPCPVNRKTSRYRSLRPNRQL,2.78
